{"source": "patent US20200255501A1", "about": "(VIB VZW, published 2020)", "key": {"[1]": {"target": "T1, B. anthracis Sap S-Layer assembly domain (Sap^AD; residues 216-814), C-terminal His6 (Bacillus anthracis, UniProt P49051 216-814)", "experiment": "isothermal titration calorimetry, […]"}, "[2]": {"target": "T1, B. anthracis Sap S-Layer assembly …", "experiment": "ITC, Nb titrated into fresh monomeric Sapc, 30 °C"}}}
{"binder": "anti-Sap Nanobody704 (VHH) VHH: QVQLVESGGGLVQPGGSLRLSCAASGFTFSNFAIAWVRQAPGKGLEWVSDINSGGTDTSYAAAVKGRFTISRDNAKNTLYLQMNNLKPEDTAVYYCAKSAQSYFHSTFDHRGQGTQVTVSS", "values": [{"measurement": "Kd", "setting": "[1]", "value": 183, "unit": "nM"}]}
{"binder": "anti-Sap Nanobody707 (VHH) VHH: QVQLVESGGGLVQAGGSLRLSCAASGSIFRINAMGWYRQASGKQRELVAAITSGGNTNYADSVKGRFTISRDNAKNTVYLQMNSLKPEDTAVYYCNADFGTGGRPYDYWGQGTQVTVSS", "values": [{"measurement": "Kd", "setting": "[1]", "value": 103, "unit": "nM"}]}
{"binder": "anti-Sap Nanobody702 (VHH) VHH: QVQLVESGGGLVQAGGSLRLSCAASGSIFRVNDMGWYRQAPGKQRELVAIIITGGSTNYADSVKGRFTISRDNAKNTVYLQMNSLRPEDTAVYYCNADFGTGPGRYDYWGQGTQVTVSS", "values": [{"measurement": "Kd", "setting": "[1]", "value": 72.5, "unit": "nM"}]}
{"binder": "anti-Sap Nanobody683 (VHH) VHH: QVQLVESGGGLVQAGGSLRLSCAASGSIFRINDMGWYRQAPGKQRELVAAITSGGSTNYADSVKGRFTISRDNAKKMVYLQMNSLKPEDTAVYYCHADFSTGWAPYDYWGQGTQVTVSS", "values": [{"measurement": "Kd", "setting": "[1]", "value": 35.8, "unit": "nM"}, {"measurement": "Kd", "setting": "[2]", "value": 35, "unit": "nM"}]}
{"binder": "anti-Sap Nanobody688 (VHH) VHH: QVQLVESGGGLVRAGGSLRLSCAASGSIFRINDMGWYRQAPGKQRELVAAITSGGSTNYADSVKGRFTISRDNAKNTVYLQMNSLKPEDTAVYYCNADFSTVRERRYDYWGQGTQVTVSS", "values": [{"measurement": "Kd", "setting": "[2]", "value": 120, "unit": "nM"}]}
